In patent publication US20030119725A1 (ACTIVE MOTIF, published 2003):
*1 amine or outer side, *2 acyl side, *3 side chain or, on linkers, in order; H or OH if unused. Cysteamide = C(CS[*:3])N[*:1]

B1: Pep-2 (KETWWETWWTEWSQPKKKRKV-cya) (peptide)
peptide: Ac-KETWWETWWTEWSQPKKKRKV-Cysteamide
notes: Synthetic 21-residue peptide: Trp-rich hydrophobic domain, Ser-Gln-Pro spacer, and a Lys-rich domain derived from the SV40 large T antigen NLS; also called Pep-2-cya; peptide vector

Experiments:
[1] = molecular target: the molecule itself; test: intrinsic tryptophan fluorescence against peptide concentration
[2] = molecular target: T1, Pep-A, 32-mer peptide derived from HIV-1 reverse transcriptase; test: intrinsic Trp fluorescence of Pep-2 on binding
T1 construct: also called peptide A

[3] = molecular target: T2, Pep-B, 51-mer peptide derived from human Cdc25C dual-specificity phosphatase; test: intrinsic Trp fluorescence of Pep-2 on binding
T2 construct: also called peptide B

[4] = molecular target: T3, 119 kDa b-galactosidase (β-gal) (UniProt P00722 2-1024 = β-galactosidase); test: intrinsic Trp fluorescence of Pep-2 on binding
T3 construct: also called beta-gal; β-galactosidase
T3 sequence (P00722 2-1024 limits assumed): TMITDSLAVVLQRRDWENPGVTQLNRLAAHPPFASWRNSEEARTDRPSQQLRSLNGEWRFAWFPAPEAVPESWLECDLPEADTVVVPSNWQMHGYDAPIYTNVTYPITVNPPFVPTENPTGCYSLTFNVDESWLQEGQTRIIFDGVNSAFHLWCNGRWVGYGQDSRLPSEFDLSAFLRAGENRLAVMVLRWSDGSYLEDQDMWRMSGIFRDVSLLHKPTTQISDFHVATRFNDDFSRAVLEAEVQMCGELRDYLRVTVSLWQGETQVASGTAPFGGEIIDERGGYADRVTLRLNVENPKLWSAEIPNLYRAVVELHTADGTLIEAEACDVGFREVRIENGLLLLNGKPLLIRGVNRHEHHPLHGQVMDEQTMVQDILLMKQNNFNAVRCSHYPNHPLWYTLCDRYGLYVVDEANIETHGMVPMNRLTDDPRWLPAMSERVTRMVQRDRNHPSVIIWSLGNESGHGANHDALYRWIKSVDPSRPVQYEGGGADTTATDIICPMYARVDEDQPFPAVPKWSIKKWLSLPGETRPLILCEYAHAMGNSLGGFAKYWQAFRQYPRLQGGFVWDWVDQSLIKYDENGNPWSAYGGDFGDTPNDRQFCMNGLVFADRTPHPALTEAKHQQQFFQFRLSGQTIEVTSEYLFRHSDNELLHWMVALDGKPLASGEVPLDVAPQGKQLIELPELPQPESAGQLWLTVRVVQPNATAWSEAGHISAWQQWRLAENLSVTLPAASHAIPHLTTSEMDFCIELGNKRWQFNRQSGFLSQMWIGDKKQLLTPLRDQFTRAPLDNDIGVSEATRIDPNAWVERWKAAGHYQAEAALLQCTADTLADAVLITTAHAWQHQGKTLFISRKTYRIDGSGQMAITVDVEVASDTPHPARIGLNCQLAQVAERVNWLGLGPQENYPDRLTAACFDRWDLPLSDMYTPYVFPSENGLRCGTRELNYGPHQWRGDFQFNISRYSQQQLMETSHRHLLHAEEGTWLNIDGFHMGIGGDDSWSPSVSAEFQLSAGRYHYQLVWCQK

[5] = molecular target: T1, Pep-A, 32-mer peptide derived from …; test: intrinsic Trp fluorescence titration of 1 µM Pep-2
[6] = molecular target: T2, Pep-B, 51-mer peptide derived from …; test: intrinsic Trp fluorescence titration of 1 µM Pep-2
[7] = molecular target: T3, 119 kDa b-galactosidase (β-gal); test: intrinsic Trp fluorescence titration of 1 µM Pep-2

Binder | binding result [1] | blue shift of the fluorescence emission maximum [2] [nm] | blue shift of the fluorescence emission maximum [3] [nm] | blue shift of the fluorescence emission maximum [4] [nm] | Kd [5] [nM] | concentration of partner at saturation [5] [nM] | saturating quenching of intrinsic tryptophan fluorescence [5] [%] | Kd [6] [nM] | concentration of partner at saturation [6] [nM] | saturating quenching of intrinsic tryptophan fluorescence [6] [%] | Kd [7] [nM] | concentration of partner at saturation [7] [nM] | saturating quenching of intrinsic tryptophan fluorescence [7] [%]
GALFLGFLGAAGSTMGAWSQPKSKRKV [MPG peptide vector] | no binding |  |  |  |  |  |  |  |  |  |  |  | 
B1 | no binding (tested: up to a millimolar concentration) | 10 | 10 | 10 | ~120 | ~200 | 36 | ~120 | ~200 | 36 | ~120 | ~50 | 65
